{"source": "paper PMC10524804", "tested_on": "CpxR-R195H (Klebsiella pneumoniae HS11286 (ST11)?)", "assay": "ITC", "conditions": "EMSA: Beyotime binding buffer (poly(dI-dC), DTT, glycerol, EDTA, NaCl, MgCl2, Tris), room temp, 2 pmol probe; footprinting: 50 mM Tris-HCl pH 8.0, 100 mM KCl …"}
{"substance": "PblaKPC (Tn1721, ST11), unlabeled", "values": [{"measurement": "binding signal (fold lower affinity than wild type)", "value": 100}]}
